Test results reported in US20240317871A1 (IMMUNOMIC THERAPEUTICS, published 2024).

T1: His-tagged human HVEM (human, UniProt Q92956 39-202, limits assumed)
T1 construct: Analyte of the BLI assay, 200 nM in PBS; not shown: His tag
T1 sequence (looked up): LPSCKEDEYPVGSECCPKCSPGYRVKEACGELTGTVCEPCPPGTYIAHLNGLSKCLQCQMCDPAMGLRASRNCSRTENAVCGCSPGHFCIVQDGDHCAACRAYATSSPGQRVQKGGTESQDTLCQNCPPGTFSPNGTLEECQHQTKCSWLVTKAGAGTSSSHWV

T2: Human HEVM recombinant protein (Sino Biological, 10334-H02H) (human, UniProt Q92956 39-202)
T2 construct: construct known only by catalogue number; also called HVEM; human HVEM
T2 sequence (looked up): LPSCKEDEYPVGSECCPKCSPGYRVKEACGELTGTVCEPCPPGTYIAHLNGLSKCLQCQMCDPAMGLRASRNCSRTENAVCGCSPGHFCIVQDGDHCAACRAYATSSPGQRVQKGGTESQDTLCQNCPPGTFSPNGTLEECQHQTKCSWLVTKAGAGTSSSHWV

T3: human HVEM (human, UniProt Q92956 39-202, limits assumed)
T3 sequence (looked up): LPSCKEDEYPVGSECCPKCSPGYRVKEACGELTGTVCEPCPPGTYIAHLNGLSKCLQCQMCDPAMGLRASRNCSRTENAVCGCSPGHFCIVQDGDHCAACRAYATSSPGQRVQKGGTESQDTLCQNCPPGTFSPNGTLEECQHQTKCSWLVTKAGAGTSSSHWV

T4: murine HVEM (murine, UniProt Q80WM9 39-206, limits assumed)
T4 construct: also called Mouse
T4 sequence (looked up): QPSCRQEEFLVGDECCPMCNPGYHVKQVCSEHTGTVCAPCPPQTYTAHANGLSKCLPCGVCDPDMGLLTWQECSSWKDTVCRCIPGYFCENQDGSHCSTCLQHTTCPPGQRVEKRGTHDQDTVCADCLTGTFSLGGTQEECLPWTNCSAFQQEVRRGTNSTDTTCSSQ

T5: cynomolgus monkey HVEM (cynomolgus monkey, UniProt A0A2K5W0R1 39-203)
T5 sequence: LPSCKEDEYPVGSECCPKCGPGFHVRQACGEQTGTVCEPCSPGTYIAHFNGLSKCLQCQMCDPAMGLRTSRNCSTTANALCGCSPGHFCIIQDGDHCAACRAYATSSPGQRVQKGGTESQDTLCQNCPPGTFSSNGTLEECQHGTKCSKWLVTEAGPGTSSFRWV


Tests used:
[1] = target: T1, His-tagged human HVEM; assay: BLI OctetRed96, mAb captured, 200 nM His-HVEM
Method in brief: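 Murine anti-human HVEM antibodies captured from culture supernatant on anti-mouse IgG Fc biosensors, then associated with 200 nM His-tagged human HVEM in PBS, followed by dissociation in PBS. koff, kon and KD obtained by curve fitting.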

[2] = target: T2, Human HEVM recombinant protein (Sino …); assay: competition ELISA, competitor LIGHT-His
Method: The competitive activity of HVEM antibody to BTLA or LIGHT was evaluated with ELISA-based competitive assay. Briefly Human HEVM recombinant protein (Sino Biological, 10334-H02H, 4 ug/ml, 100 ul/well) was coated to ELISA plate (Thermo Scientific, 469949, 4C overnight). A pre-mixture of HVEM antibody clone with seral dilution and 400 nM BTLA-His (R&D systems, 9235-BT-050) or LIGHT-His (SinoBiological, 10386-H07H) recombinant protein was made and added to the ELISA plate after blocking with 3% BSA (200 ul/well, RT 2 Hr) for 1 Hr at RT. The serial dilutions of HVEM antibody clone involve 7 different concentrations, with a 3-fold dilution performed start from 100 nM for BTLA or 325 nM for LIGHT competitive assay. The concentration was the final concentration. Plate was washed with PBST; diluted HRP-anti-His (Biolegend, 652504, 1:1000) with PBS containing 5% FBS was added 100 ul per well for 1 Hr at RT. TMB substrate (KPL, 52-00-00) 100 ul per well after washing and incubate at room temperature for 15 minutes; then stop the development by adding 100 ul stop solution (KPL, 50-85-06). Plate was read at 450 nm. The IC50 was calculated using GraphPad Prism software (GraphPad Software, Inc. San Diego, CA, USA).

[3] = target: T2, Human HEVM recombinant protein (Sino …); assay: competition ELISA, competitor BTLA-His
Method in brief: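 HVEM protein coated at 4 ug/ml; antibody serially diluted 3-fold over 7 points (final top 100 nM for BTLA, 325 nM for LIGHT), premixed with 400 nM His-tagged competitor and incubated 1 Hr at RT. Bound competitor detected by HRP-anti-His/TMB at 450 nm; IC50 calculated.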

[4] = target: T3, human HVEM; assay: ELISA
[5] = target: T4, murine HVEM; assay: ELISA
[6] = target: T5, cynomolgus monkey HVEM; assay: ELISA

Binder	Kd [1]	koff [1]	kon [1]	IC50 [2]	IC50 [3]	ELISA signal [4]	ELISA signal [5]	ELISA signal [6]
Ab_001 (H5S14-1A1A) (antibody, V domains shown, also called Ab_1) VH: DVKLVESGGGLVKPGGSLKLSCAASVFTFSRYTMSWVRQTPEKRLEWVATISSGGSYTYYPDSVKGRFTISRDNAKNTLYLQMSSLKSEDTAIYYCTRGGDGLFDYWGQGTALTVSS VL: DVQITQSPSYLAASPGETITINCRASKSISKYLAWYQEKPGKTNQLLIYSGSTLQSGIPSRFSGSGSGTDFTLTISSLEPEDFAMYYCQQHNEYPWTFGGGTKLEIK	550 nM	0.154 s⁻¹	280000 M⁻¹ s⁻¹	715 nM	2.2 nM	3.3	0.057	0.072
Ab_050 (H5S19-9A11A) (antibody, V domains shown, also called Ab_50) VH: QVQLKQSGPGLVQPSQSLSITCTVSGFSLTTYGVHWVRQSPGKGLEWLGVIWSGGSTDYNAAFISRLSISKDNSKSQVFFKMNSLQANDTAIYYCARRGYGSPYYYAMDYWGQGTSVTVSS VL: EIVLTQSPALMAASPGEKVTITCSVSSSISSSNLHWYQQKSETSPKPWIYGTSNLASGVPVRFSGSGSGTSYSLTISSMEAEDAATYYCQQWSSYPLTFGAGTKLELK	42.2 nM	0.00481 s⁻¹	114000 M⁻¹ s⁻¹	117 nM	3 nM	3.02	0.047	0.094
Ab_011 (H5S14-12A11A) (antibody, V domains shown, also called Ab_11) VH: QVQLQQSGAELVRPGTSVKISCKASGNIFTNSWLGWIKQRPGHGLEWIGDVYPGGGYNKYNEKFKGKATLTIDTSASTAYMQLSRLTSEDSGVYFCAGAMDYWGQGTSVTVSS VL: not shown	2.78 nM	0.00107 s⁻¹	385000 M⁻¹ s⁻¹	20.5 nM		3.16	0.049	2.97
Ab_070 (H5S20-7A7A) (antibody, V domains shown, also called Ab_70) VH: QVQLQQSGAELVRPGTSVKISCKASGYRFTNSWLGWIKQRPGHGLEWIGDIYPGGGYNKYNEKFRGKATLTADTSSSTAYMQLSSLTSEDSAVYFCAGAMDSWGQGTSVTVSS VL: not shown	2.33 nM	0.00102 s⁻¹	438000 M⁻¹ s⁻¹	17.8 nM		3.23	0.062	3.1
Ab_012 (H5S14-13A11A) (antibody, V domains shown, also called Ab_12) VH: QVQLQQSGAELVRPGTSVKISCKASGYIFTNSWLGWIKQRPGHGLEWIGDVYPGGGYNKYNEKFKGKATLTIDTSASTAYMQLSRLTSEDSAVYFCAGAMDYWGQGTSVTVSS VL: not shown	3.22 nM	0.00121 s⁻¹	375000 M⁻¹ s⁻¹	20.9 nM		3.08	0.044	2.89
Ab_067 (H5S20-7B7B) (antibody, V domains shown, also called Ab_67) VH: QVQLQQSGAELIRPGTSVKISCKASGYRFTNSWLGWIKLRPGHGLEWIGDIYPGGGYNKYNEKFRGKATLTADTSSSTAYMQLSSLTSEDSAVYFCAGAMDSWGQGTSVTVSS VL: not shown	2.65 nM	0.00134 s⁻¹	505000 M⁻¹ s⁻¹	13.6 nM		3.05	0.047	3.04
Ab_013 (H5S14-14A11A) (antibody, V domains shown, also called Ab_13) VH: QVQLQQSGAELVRPGTSVKISCKASGYIFTNYWLGWIKQRPGHGLEWIGDVYPGGGYNKYNEKFKGKATLTVDTSASTAYMQLSRLTSEDSAVYFCAGAMDYWGQGTSVTVSS VL: not shown	4.39 nM	0.00149 s⁻¹	340000 M⁻¹ s⁻¹	28.1 nM		3	0.048	2.74
Ab_046 (H5S15-35A31A) (antibody, V domains shown, also called Ab_46) VH: QVQLQQSGAELVRPGTSVKISCKASGYTFTNSWLGWVKQRPGHGLEWIGDIYPGGGYNKYNEKFKGKATLTADTSSSTAYMQLGSLTSEDSAVYFCAGAMDYWGQGTSVTVSS VL: not shown	4.59 nM	0.00169 s⁻¹	368000 M⁻¹ s⁻¹	27.2 nM		2.94	0.042	3.03
Ab_045 (H5S15-31A12C) (antibody, V domains shown, also called Ab_45) VH: QVQLQQSGAELVRPGTSVKISCKASGYAFTNSWLGWVKQRPGHGLEWIGDIYPGGGYNKYNEKFKGKATLTADTSSSTAYMQLSSLTSEDSAVYFCAGALDYWGQGTSVTVSS VL: not shown	7.32 nM	0.00265 s⁻¹	362000 M⁻¹ s⁻¹	31 nM		3.08	0.042	2.9
Ab_068 (H5S20-24A19A) (antibody, V domains shown, also called Ab_68) VH: QVQLQQSGAELVRPGTSVKISCKASGYTFTNYWLGWVKQRPGHGLEWIGDIYPGGGYIIYNEKFKGKATLTVDSSATTAYIQLNSLTSEDSAVYFCAGAMDHWGQGTSVTVSS VL: not shown	5.99 nM	0.00192 s⁻¹	320000 M⁻¹ s⁻¹	20.5 nM		3.03	0.044	3.04
Ab_069 (H5S20-43A19B) (antibody, V domains shown, also called Ab_155; Ab_69) VH: QVQLQQSGAELVRPGTSVMISCKASGYTFTNYWLGWVKQRPGHGLEWIGDIYPGGGYIIYNEKFKGKATLTVDSSATTAYMQLSSLTSEDSAVYFCAGAMDYWGQGTSVTVSS VL: not shown	2.97 nM	0.000803 s⁻¹	271000 M⁻¹ s⁻¹	22.3 nM		3.13	0.054	3.04
Ab_030 (H5S15-18A17A) (antibody, V domains shown, also called Ab_30) VH: QVQLQQSGAELVRPGTSVKMSCKAAGYTFTNSWIGWVKQRPGHGLEWIGDIYPGGGYTNYYEKFKVKATLTADTSSSTAYMQLSSLTSEDSAIYYCASSGAYWGQGTTLTVSS VL: not shown	10.3 nM	0.00419 s⁻¹	405000 M⁻¹ s⁻¹	21.9 nM		3.08	0.046	2.98
Ab_031 (H5S15-8A17A) (antibody, V domains shown, also called Ab_31) VH: QVQLQQSGAELVRPGTSVKMSCKAAGYTFTDSWIGWVKQRPGHGLEWIGDIYPGGGYTNYNEKFKGKATLTADTSSSTAYMQLSRLTSEDSAIYYCASSGAYWGQGTTLTVSS VL: not shown	11 nM	0.00321 s⁻¹	291000 M⁻¹ s⁻¹	22 nM		3.08	0.042	3.06
